Test results taken from paper PMC2832003.

Assays:
[1] = target: T1, activin type IIB receptor (ActRIIB), coated on ELISA plates, Q13705; experiment: ELISA; competition: quantified conditioned media compete with biotinylated inhibin A for ActRIIB coated on the plate
[2] = target: T1, activin type IIB receptor (ActRIIB), …
[3] = target: T1, activin type IIB receptor (ActRIIB), …; experiment: ELISA; 50 ng ActRIIB dried in each well (20 mM HEPES pH 7.4); biotinylated inhibin A or activin A in TBST pH 7.4, 1.5 h, room temperature; streptavidin-HRP; standard binding curve
[4] = target: T1, activin type IIB receptor (ActRIIB), …; experiment: ELISA; competition: quantified conditioned media compete with biotinylated activin A for ActRIIB coated on the plate

B1: α^HPWR−/βA mutant inhibin A, P05111 233-366; P08476 311-426 (complex)
chain 1: STPLMSWPWSPSALRLLQRPPEEPAAHANCHRVALNISFQELGWERWIVYPPSFIFHYCHGGCGLHIYSLLPGAQPCCAALPGTMRPLHVRTTSDGGYSFKYETVPNLLTQHCACI
chain 2: GLECDGKVNICCKKQFFVSFKDIGWNDWIIAPSGYHANYCEGECPSHIAGTSGSSLSFHSTVINHYRMRGHSPFANLKSCCVPTKLRPMSMLYYDDGQNIIKKDIQNMIVEECGCS
IC50 [1]: 2.96 nM
IC50 of antagonism of activin A (0.4 nM) in the FSHβ-luciferase assay in LβT2 cells, with transfected betaglycan [2]: 0.27 nM
IC50 of antagonism of activin A (0.4 nM) in the FSHβ-luciferase assay in LβT2 cells, without betaglycan [2]: 0.31 nM

B2: wild type chicken inhibin A (α^Chwt/βA), P43031 217-329; P08476 311-426 (complex)
chain 1: SAVPWSPAALSLLQRPSEDVAAHTNCRRASLNISFEELGWDNWIVHPSSFVFHYCHGNCAEGHGLSHRLGVQLCCAALPGTMRSLRVRTTSDGGYSFKYETVPNILAQDCTCV
chain 2: B1 chain 2
IC50 [1]: 5.55 nM

B3: α^Hext−/βA mutant inhibin A, P05111 233-366; P08476 311-426 (complex)
chain 1: STPLMANCHRVALNISFQELGWERWIVYPPSFIFHYCHGGCGLHIPPNLSLPVPGAPPTPAQPYSLLPGAQPCCAALPGTMRPLHVRTTSDGGYSFKYETVPNLLTQHCACI
chain 2: B1 chain 2
modifications: here or on the partner: disulfide-linked heterodimer; alpha-subunit N-glycosylated (CHO-expressed)
IC50 [1]: 128 nM

B4: biotinylated human inhibin A, P05111 233-366; P08476 311-426 (complex)
chain 1: STPLMSWPWSPSALRLLQRPPEEPAAHANCHRVALNISFQELGWERWIVYPPSFIFHYCHGGCGLHIPPNLSLPVPGAPPTPAQPYSLLPGAQPCCAALPGTMRPLHVRTTSDGGYSFKYETVPNLLTQHCACI
chain 2: B1 chain 2
modifications: here or on the partner: biotin (EZ-link Micro Sulfo-NHS-LC-biotinylation Kit), sites not stated | biotin (EZ-link Micro Sulfo-NHS-LC-biotinylation Kit), sites not stated
EC50 [3]: 2.73 nM

B5: wild type human activin A (βA/βA dimer), P08476 311-426 (complex)
chain: B1 chain 2
IC50 [4]: 4.14 nM

B6: biotinylated human activin A, P08476 311-426 (complex)
chain: B1 chain 2
modifications: here or on the partner: biotin (EZ-link Micro Sulfo-NHS-LC-biotinylation Kit), sites not stated
EC50 [3]: 1.1 nM

B7: wild type human inhibin A (α^Hwt/βA), P05111 233-366; P08476 311-426 (complex)
chain 1: B4 chain 1
chain 2: B1 chain 2
IC50 [1]: 9.01 nM
